Results on one substance are retold here after publication PMC8242512.

pKd: −log10 of the molar value.

The test concerns the target soluble trimeric SARS-CoV-2 S glycoprotein, 2P-stabilized, lacking the furin cleavage site (SARS-CoV-2) (UniProt P0DTC2). In words: SPR; S protein captured on a Ni2+-loaded NTA chip; ACE2 as analyte, serial dilutions 200 nM to 3.125 nM in triplicate, 50 ul/min, HBS P+ buffer, association 300 s, dissociation 600 s; 1:1 binding model (Biacore Evaluation Software).

truncated soluble angiotensin-converting enzyme 2 (hACE2), sequence (Q9BYF1 18-626): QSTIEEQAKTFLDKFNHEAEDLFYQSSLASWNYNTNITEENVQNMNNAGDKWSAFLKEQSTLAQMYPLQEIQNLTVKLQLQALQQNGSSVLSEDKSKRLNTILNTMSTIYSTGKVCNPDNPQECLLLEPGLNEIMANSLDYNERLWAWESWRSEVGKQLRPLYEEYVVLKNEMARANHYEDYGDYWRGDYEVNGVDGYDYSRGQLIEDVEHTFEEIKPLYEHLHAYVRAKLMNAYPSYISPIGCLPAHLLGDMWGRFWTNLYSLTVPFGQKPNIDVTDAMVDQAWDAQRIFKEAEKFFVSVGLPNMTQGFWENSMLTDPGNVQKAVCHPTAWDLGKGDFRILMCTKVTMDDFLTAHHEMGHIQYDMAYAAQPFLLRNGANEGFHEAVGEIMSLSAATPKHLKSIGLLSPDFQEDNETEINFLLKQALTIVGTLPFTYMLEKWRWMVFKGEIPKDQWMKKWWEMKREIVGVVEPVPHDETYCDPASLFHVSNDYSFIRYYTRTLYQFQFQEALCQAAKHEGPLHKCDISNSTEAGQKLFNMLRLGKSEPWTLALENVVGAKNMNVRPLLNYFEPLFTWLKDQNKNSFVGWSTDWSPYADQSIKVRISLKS

As for “truncated soluble angiotensin-converting enzyme 2 (hACE2) (from UniProt Q9BYF1 18-626) (receptor)”, the pKd was 7.08.
